Earlier results as cited in publication PMC3050111.
Read-outs that look alike come from different tables or passages of the source.

Assays:
[1] = molecular target: integrin αVβ3 (Homo sapiens) (UniProt P06756)
[2] = molecular target: integrin αVβ3 (Homo sapiens) (UniProt P06756); remark: listed apart in the source
[3] = molecular target: integrin αVβ3 (Homo sapiens) (UniProt P06756); remark: listed apart in the source

## Tat (from UniProt P04326)
[1]
  Kd: 32 nM

## fibrinogen (from UniProt P02671)
[2]
  Kd: 27 nM

## vitronectin (from UniProt P04004)
[3]
  Kd: 64 nM
